This experiment addresses T1, MxiD[SctC] (Shigella flexneri, UniProt Q04641 23-566).
T1 construct: the last 18 residues (S549-Y566) are not resolved; 16 subunits in the connector (N0, N1), 15 in the OM ring (N3, secretin, S domain); also called secretin; OM ring
T1 sequence: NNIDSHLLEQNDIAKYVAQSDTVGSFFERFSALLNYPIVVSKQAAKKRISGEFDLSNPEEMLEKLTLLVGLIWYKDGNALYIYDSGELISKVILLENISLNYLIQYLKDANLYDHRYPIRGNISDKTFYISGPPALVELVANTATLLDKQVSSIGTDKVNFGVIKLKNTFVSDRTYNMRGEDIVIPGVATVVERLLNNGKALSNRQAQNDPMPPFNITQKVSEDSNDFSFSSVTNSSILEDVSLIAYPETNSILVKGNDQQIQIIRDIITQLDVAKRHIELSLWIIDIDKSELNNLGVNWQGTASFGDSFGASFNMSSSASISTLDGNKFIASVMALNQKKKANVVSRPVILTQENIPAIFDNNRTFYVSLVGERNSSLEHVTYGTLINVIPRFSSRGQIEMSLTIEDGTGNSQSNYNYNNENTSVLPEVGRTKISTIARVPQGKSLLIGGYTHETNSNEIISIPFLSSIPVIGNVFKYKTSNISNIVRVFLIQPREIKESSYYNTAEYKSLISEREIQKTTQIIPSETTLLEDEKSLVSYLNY
The experiment is described as follows: cross-linking; BS3 cross-linking mass spectrometry of the isolated needle complex; 0.2-0.3 mM BS3, 30 min, room temperature; 2% FDR at residue-pair level. The following applies: both partners purified.

B1: MxiM[SctG] (natural protein)
chain: CALKSSSNSEKEWHIVPVSKDYFSIPNDLLWSFNTTNKSINVYSKCISGKAVYSFNAGKFMGNFNVKEVDGCFMDAQKIAIDKLFSMLKDGVVLKGNKINDTILIEKDGEVKLKLIRGI
modifications: lipidated N-terminus
notes: MxiM[SctG], pilotin of the Shigella flexneri T3SS; also called pilotin; pilot protein
For B1, the binding result is listed as “binds”.

(Values after publication PMC10019453, “Integrative structural analysis of the type III secretion system needle complex from Shigella flexneri” (Protein Science : A Publication of the Protein Society, 2023).)
